Source: patent US7223547B2, “Polypeptides having a functional domain of interest and methods of identifying and using same” (Cytogen Corporation, priority 1995, dated 2007)
Each block holds one molecule with its values, some of them ahead of it. * marks the point of attachment. Biotin = O=C1N[C@H]2[C@H](CS[C@H]2CCCCC(=O)*)N1

Key:
[1] = patients to whom the drug is administered; cited from earlier work
[2] = test system: virus that causes hepatitis B; details: at given dosages; cited from earlier work
[3] = target: T1, SH3P17, a novel human gene (human, UniProt Q15811 729-1220); assay: plaque-lift screen of human prostate cancer and bone marrow cDNA expression libraries with biotinylated peptide complexed to SA-AP (T12SRC.4 also present in the initial screens)
T1 construct: Fragment encoded by a cDNA clone, with at least four SH3 domains, on plaque-lift filters
T1 sequence: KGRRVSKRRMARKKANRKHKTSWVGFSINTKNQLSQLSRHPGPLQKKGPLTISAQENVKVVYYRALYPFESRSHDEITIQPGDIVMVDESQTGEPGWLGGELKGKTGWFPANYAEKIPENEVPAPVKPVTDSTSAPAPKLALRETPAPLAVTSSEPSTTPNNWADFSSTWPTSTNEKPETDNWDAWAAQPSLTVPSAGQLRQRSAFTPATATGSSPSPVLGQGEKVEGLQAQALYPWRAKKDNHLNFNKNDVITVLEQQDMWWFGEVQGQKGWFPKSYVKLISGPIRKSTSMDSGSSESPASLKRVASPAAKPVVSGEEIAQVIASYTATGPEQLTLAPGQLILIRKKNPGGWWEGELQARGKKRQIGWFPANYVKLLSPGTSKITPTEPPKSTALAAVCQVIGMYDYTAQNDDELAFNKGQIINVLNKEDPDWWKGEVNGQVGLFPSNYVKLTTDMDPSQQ

[4] = target: T2, SH3P18, a novel human gene (human, UniProt Q9NZM3 952-1192); assay: as above
T2 construct: Fragment encoded by a cDNA clone, with at least three SH3 domains, on plaque-lift filters
T2 sequence: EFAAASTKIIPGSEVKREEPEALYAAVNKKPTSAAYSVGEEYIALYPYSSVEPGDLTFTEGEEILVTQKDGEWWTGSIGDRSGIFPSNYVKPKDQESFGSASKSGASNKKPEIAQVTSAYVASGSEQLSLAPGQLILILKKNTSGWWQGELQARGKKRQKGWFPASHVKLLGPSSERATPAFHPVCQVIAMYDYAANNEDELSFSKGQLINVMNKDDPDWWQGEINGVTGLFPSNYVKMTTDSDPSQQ

SH3P14, human H74 = target: T3, SH3P14, human H74 (human, UniProt Q9UNF0 118-486, limits assumed); assay: as above
T3 construct: Protein encoded by a cDNA clone from a lambda gt11 or gt22a human library, on plaque-lift filters
T3 sequence: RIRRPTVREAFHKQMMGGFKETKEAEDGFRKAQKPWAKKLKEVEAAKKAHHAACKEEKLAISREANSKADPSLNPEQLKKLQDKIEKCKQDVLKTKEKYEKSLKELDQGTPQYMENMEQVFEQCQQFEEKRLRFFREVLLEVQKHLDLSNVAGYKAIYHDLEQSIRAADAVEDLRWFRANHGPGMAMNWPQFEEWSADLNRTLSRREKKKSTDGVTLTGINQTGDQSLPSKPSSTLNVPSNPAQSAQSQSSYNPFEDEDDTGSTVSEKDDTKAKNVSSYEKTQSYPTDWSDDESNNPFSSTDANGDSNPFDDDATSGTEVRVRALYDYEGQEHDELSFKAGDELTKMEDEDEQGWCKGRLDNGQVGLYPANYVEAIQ

[5] = target: T4, SH3P9, a novel human gene (human, UniProt O00499 44-593); assay: as above
T4 construct: Protein encoded by a cDNA clone from a lambda gt11 or gt22a human library, on plaque-lift filters; The vector fusion partner is not described; also called human homolog of SH3P9
T4 sequence: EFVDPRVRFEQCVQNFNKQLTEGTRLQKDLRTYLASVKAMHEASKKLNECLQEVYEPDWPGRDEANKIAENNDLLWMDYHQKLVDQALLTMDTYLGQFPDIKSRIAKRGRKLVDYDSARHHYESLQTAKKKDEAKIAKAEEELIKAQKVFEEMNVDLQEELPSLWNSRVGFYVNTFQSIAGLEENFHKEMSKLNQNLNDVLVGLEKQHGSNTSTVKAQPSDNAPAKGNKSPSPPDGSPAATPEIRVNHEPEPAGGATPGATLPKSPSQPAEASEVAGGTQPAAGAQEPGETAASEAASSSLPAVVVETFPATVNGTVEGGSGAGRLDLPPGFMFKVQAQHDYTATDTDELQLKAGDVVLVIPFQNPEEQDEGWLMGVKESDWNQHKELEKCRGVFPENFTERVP

SH3P10, mouse HS1 = target: T5, SH3P10, mouse HS1 (mouse, UniProt P49710 1-486); assay: plaque-lift screen of mouse 16 day embryo cDNA expression library with biotinylated peptide complexed to SA-AP
T5 construct: Protein encoded by a cDNA clone, on plaque-lift filters; also called SPY75/HS1; not shown: N-terminal phi10 leader (T7-Tag) common to all lambda EXlox recombinants
T5 sequence: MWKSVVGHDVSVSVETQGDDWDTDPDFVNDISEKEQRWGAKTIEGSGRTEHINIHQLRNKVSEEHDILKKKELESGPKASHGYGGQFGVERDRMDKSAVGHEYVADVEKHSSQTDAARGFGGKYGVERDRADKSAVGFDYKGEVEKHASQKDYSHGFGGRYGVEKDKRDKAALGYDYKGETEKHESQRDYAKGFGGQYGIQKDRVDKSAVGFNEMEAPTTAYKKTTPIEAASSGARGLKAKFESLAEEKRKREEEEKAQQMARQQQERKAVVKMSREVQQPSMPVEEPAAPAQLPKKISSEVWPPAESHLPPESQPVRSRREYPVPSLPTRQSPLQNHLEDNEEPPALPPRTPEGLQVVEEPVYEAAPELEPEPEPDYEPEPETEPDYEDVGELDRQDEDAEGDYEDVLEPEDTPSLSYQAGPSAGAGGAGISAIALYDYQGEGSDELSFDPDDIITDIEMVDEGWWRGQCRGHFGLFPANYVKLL

[6] = target: T6, SH3P9, a novel mouse gene (mouse, UniProt O08539 2-588); assay: as above
T6 construct: Protein encoded by a cDNA clone, on plaque-lift filters; also called SH3P9 (mouse); not shown: N-terminal phi10 leader (T7-Tag) common to all lambda EXlox recombinants
T6 sequence: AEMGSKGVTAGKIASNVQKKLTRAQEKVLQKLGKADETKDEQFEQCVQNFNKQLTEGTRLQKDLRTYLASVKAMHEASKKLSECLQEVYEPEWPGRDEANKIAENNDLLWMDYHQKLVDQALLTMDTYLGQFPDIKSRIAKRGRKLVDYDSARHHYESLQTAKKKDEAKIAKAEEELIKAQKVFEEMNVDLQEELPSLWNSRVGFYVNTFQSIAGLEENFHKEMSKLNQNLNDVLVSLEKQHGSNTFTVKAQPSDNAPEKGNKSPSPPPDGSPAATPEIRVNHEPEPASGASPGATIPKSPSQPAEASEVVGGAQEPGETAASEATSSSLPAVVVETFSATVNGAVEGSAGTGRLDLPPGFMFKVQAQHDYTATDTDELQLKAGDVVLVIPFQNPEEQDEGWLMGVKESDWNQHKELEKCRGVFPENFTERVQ

[7] = target: T7, SH3P13, a novel mouse gene (mouse, UniProt Q62421 1-347); assay: as above
T7 construct: Protein encoded by a cDNA clone, on plaque-lift filters; not shown: N-terminal phi10 leader (T7-Tag) common to all lambda EXlox recombinants
T7 sequence: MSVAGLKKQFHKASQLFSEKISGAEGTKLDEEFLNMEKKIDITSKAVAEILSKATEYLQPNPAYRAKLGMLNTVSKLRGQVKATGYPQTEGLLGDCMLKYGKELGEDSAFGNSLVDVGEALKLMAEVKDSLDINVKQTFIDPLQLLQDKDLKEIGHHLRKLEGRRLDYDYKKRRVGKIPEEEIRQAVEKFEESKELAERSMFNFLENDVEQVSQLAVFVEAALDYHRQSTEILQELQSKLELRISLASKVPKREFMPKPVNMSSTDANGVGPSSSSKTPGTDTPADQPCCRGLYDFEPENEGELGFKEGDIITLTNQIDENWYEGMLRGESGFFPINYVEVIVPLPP

[8] = target: T8, SH3P12, a novel mouse gene (mouse, UniProt Q62417 1-1290); assay: as above
T8 construct: Protein encoded by a cDNA clone, on plaque-lift filters; not shown: N-terminal phi10 leader (T7-Tag) common to all lambda EXlox recombinants
T8 sequence: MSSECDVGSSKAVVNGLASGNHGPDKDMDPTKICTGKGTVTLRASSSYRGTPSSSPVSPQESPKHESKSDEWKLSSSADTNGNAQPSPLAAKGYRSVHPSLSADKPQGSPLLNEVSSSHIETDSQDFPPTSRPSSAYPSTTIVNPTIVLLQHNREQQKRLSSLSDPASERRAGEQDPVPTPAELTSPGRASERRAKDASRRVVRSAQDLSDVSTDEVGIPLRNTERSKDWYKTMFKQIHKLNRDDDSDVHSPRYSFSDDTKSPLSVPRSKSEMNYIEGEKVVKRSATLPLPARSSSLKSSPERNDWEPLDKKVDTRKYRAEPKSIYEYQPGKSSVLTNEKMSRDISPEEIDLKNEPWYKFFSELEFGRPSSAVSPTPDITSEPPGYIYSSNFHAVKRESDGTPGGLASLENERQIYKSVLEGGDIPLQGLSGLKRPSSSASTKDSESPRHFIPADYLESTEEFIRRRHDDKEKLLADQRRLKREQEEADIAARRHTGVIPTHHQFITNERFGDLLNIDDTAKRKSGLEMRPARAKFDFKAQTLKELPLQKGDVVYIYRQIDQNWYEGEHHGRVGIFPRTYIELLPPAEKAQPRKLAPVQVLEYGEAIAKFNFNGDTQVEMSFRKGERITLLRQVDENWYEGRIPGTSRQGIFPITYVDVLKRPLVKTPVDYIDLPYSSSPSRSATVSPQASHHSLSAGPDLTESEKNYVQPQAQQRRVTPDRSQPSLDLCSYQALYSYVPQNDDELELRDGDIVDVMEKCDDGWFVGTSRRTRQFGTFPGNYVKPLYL

SH3P11, mouse Crk = target: T9, SH3P11, mouse Crk (mouse, UniProt Q64010 1-304); assay: as above
T9 construct: Protein encoded by a cDNA clone, on plaque-lift filters; not shown: N-terminal phi10 leader (T7-Tag) common to all lambda EXlox recombinants

SH3P6, mouse MLN50 = target: T10, SH3P6, mouse MLN50 (mouse, UniProt Q61792 59-263); assay: as above
T10 construct: Protein encoded by a cDNA clone, on plaque-lift filters; not shown: N-terminal phi10 leader (T7-Tag) common to all lambda EXlox recombinants
T10 sequence: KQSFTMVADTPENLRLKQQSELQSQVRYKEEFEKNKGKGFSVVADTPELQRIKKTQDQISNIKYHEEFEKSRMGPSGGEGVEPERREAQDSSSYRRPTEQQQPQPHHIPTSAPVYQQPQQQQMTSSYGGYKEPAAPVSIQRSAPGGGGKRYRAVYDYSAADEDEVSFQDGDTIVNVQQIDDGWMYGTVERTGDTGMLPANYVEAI

SH3P5, mouse Cortactin = target: T11, SH3P5, mouse Cortactin (mouse, UniProt Q60598 1-546); assay: as above
T11 construct: Protein encoded by a cDNA clone, on plaque-lift filters; not shown: N-terminal phi10 leader (T7-Tag) common to all lambda EXlox recombinants

[9] = target: T12, SH3P8, a novel mouse gene (mouse, UniProt Q62419 1-368); assay: as above
T12 construct: Protein encoded by a cDNA clone, on plaque-lift filters; not shown: N-terminal phi10 leader (T7-Tag) common to all lambda EXlox recombinants

[10] = target: T13, SH3P7, a novel mouse gene (mouse, UniProt Q62418 1-436); assay: as above
T13 construct: Protein encoded by a cDNA clone, on plaque-lift filters; not shown: N-terminal phi10 leader (T7-Tag) common to all lambda EXlox recombinants
T13 sequence (Q62418 other isoform, or with tags, fused parts or gaps): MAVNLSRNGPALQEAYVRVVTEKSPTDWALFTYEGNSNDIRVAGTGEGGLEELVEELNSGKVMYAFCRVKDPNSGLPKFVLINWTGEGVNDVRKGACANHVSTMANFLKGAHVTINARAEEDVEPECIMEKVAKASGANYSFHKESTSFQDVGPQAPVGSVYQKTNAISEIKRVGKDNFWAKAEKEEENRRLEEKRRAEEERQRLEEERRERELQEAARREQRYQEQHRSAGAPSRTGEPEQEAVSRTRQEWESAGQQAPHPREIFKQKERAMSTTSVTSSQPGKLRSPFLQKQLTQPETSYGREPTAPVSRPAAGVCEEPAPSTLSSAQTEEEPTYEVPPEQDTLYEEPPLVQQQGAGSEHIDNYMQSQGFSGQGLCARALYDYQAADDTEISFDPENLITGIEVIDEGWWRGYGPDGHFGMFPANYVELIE

T11 sequence (Q60598 whole entry S298P): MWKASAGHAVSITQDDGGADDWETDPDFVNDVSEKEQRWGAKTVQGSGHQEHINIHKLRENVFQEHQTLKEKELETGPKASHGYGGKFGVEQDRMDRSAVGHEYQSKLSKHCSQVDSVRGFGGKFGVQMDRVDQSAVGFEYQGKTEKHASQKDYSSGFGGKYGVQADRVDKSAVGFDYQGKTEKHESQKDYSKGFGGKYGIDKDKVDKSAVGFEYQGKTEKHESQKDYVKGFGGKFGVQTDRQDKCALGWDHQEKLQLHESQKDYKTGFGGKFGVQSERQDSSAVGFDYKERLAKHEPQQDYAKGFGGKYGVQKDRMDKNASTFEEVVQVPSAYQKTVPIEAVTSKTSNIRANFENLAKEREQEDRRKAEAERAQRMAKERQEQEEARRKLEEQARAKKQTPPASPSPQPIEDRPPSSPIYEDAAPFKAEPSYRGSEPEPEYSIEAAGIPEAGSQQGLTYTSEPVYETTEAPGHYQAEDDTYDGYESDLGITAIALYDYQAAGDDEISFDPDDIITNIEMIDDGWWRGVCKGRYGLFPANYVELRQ
T9 sequence (Q64010 whole entry): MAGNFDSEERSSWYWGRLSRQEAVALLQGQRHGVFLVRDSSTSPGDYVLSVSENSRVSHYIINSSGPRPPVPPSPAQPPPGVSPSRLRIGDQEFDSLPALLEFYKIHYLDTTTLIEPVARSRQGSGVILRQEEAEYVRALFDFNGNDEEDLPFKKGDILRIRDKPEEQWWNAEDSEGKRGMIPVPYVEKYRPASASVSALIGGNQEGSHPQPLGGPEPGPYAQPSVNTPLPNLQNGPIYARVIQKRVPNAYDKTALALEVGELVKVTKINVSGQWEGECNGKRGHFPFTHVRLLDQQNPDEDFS
T12 sequence (Q62419 other isoform, or with tags, fused parts or gaps): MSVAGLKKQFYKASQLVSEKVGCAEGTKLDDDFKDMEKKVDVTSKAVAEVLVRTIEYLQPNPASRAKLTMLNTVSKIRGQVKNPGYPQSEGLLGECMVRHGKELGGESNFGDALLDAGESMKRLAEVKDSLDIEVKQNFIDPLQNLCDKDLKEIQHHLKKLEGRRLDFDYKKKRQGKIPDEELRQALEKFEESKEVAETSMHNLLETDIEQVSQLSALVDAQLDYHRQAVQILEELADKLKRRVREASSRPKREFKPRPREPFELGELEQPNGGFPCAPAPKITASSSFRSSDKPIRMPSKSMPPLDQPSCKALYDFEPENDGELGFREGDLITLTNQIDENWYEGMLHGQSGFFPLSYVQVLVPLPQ

Molecule: O=c1[nH]c(=O)n([C@@H]2O[C@H](CO)[C@@H](O)[C@@H]2F)cc1I [FIAU]
suspected toxic side effects [1]: liver failure in certain patients
effectiveness against the virus that causes hepatitis B [2]: effective

binding result [3]: binds
binding result [4]: binds
binding result (SH3P14, human H74): binds
binding result [5]: binds
B1: T12SRC.1 (biotin-GILAPPVPPRNTR-NH2) (peptide)
peptide: Biotin-GILAPPVPPRNTR-NH2
SMILES: CC[C@H](C)[C@H](NC(=O)CNC(=O)CCCC[C@@H]1SC[C@@H]2NC(=O)N[C@@H]21)C(=O)N[C@@H](CC(C)C)C(=O)N[C@@H](C)C(=O)N1CCC[C@H]1C(=O)N1CCC[C@H]1C(=O)N[C@H](C(=O)N1CCC[C@H]1C(=O)N1CCC[C@H]1C(=O)N[C@@H](CCCNC(=N)N)C(=O)N[C@@H](CC(N)=O)C(=O)N[C@H](C(=O)N[C@@H](CCCNC(=N)N)C(N)=O)[C@@H](C)O)C(C)C
notes: Used complexed with streptavidin-alkaline phosphatase; also called variant of the pSrcCII peptide

binding result (SH3P10, mouse HS1): binds
binding result [6]: binds
binding result [7]: binds
binding result [8]: binds
binding result (SH3P11, mouse Crk): binds
binding result (SH3P6, mouse MLN50): binds
binding result (SH3P5, mouse Cortactin): binds
binding result [9]: binds
binding result [10]: binds
B2: pCort (biotin-SGSGSRLTPQSKPPLPPKPSWVSR-NH2) (peptide)
peptide: Biotin-SGSGSRLTPQSKPPLPPKPSWVSR-NH2
SMILES: CC(C)C[C@H](NC(=O)[C@H](CCCNC(=N)N)NC(=O)[C@H](CO)NC(=O)CNC(=O)[C@H](CO)NC(=O)CNC(=O)[C@H](CO)NC(=O)CCCC[C@@H]1SC[C@@H]2NC(=O)N[C@@H]21)C(=O)N[C@H](C(=O)N1CCC[C@H]1C(=O)N[C@@H](CCC(N)=O)C(=O)N[C@@H](CO)C(=O)N[C@@H](CCCCN)C(=O)N1CCC[C@H]1C(=O)N1CCC[C@H]1C(=O)N[C@@H](CC(C)C)C(=O)N1CCC[C@H]1C(=O)N1CCC[C@H]1C(=O)N[C@@H](CCCCN)C(=O)N1CCC[C@H]1C(=O)N[C@@H](CO)C(=O)N[C@@H](Cc1c[nH]c2ccccc12)C(=O)N[C@H](C(=O)N[C@@H](CO)C(=O)N[C@@H](CCCNC(=N)N)C(N)=O)C(C)C)[C@@H](C)O
notes: Synthetic peptide with the Cortactin SH3 recognition unit motif; used complexed with streptavidin-alkaline phosphatase
